{"source": "the Human Domainome abundance scans (Beltran et al. 2025)", "parents": {"B1": {"name": "Myocardin-related transcription factor A, residues 341 to 383; numbered along this chain, Q969V6 (parent)", "chain": "GALPANLDDMKVAELKQELKLRSLPVSGTKTELIERLRAYQDQ"}}, "note": "± gives the uncertainty stated by the source."}
{"variants_of": "B1", "test": "abundance fitness (aPCA) (normalised: wild type 0, dead -1); higher = more abundant; growth selection in yeast, the domain comes from the species named", "conditions": "Homo sapiens"}
{"variant": "GALPANLDDMKVAELKQEMKLRSLPVSGTKTELIERLRAYQDQ", "note": "[L19M]", "abundance fitness": "0.178 ± 0.29"}
{"variant": "GALPANLDDMKVAELKQECKLRSLPVSGTKTELIERLRAYQDQ", "note": "[L19C]", "abundance fitness": "-0.083 ± 0.09"}
{"variant": "GALPANLDDMKVAELKQEKKLRSLPVSGTKTELIERLRAYQDQ", "note": "[L19K]", "abundance fitness": "-0.8 ± 0.12"}
{"variant": "GALPANLDDMKVAELKQELELRSLPVSGTKTELIERLRAYQDQ", "note": "[K20E]", "abundance fitness": "0.145 ± 0.08"}
{"variant": "GALPANLDDMKVAELKQELYLRSLPVSGTKTELIERLRAYQDQ", "note": "[K20Y]", "abundance fitness": "0.657 ± 0.28"}
{"variant": "GALPANLDDMKVAELKQELRLRSLPVSGTKTELIERLRAYQDQ", "note": "[K20R]", "abundance fitness": "0.011 ± 0.06"}
{"variant": "GALPANLDDMKVAELKQELWLRSLPVSGTKTELIERLRAYQDQ", "note": "[K20W]", "abundance fitness": "-0.372 ± 0.072"}
{"variant": "GALPANLDDMKVAELKQELALRSLPVSGTKTELIERLRAYQDQ", "note": "[K20A]", "abundance fitness": "-0.003 ± 0.071"}
{"variant": "GALPANLDDMKVAELKQELSLRSLPVSGTKTELIERLRAYQDQ", "note": "[K20S]", "abundance fitness": "0.05 ± 0.075"}
{"variant": "GALPANLDDMKVAELKQELNLRSLPVSGTKTELIERLRAYQDQ", "note": "[K20N]", "abundance fitness": "-0.137 ± 0.12"}
{"variant": "GALPANLDDMKVAELKQELFLRSLPVSGTKTELIERLRAYQDQ", "note": "[K20F]", "abundance fitness": "-0.153 ± 0.097"}
{"variant": "GALPANLDDMKVAELKQELVLRSLPVSGTKTELIERLRAYQDQ", "note": "[K20V]", "abundance fitness": "-0.041 ± 0.072"}
{"variant": "GALPANLDDMKVAELKQELPLRSLPVSGTKTELIERLRAYQDQ", "note": "[K20P]", "abundance fitness": "-0.453 ± 0.091"}
{"variant": "GALPANLDDMKVAELKQELTLRSLPVSGTKTELIERLRAYQDQ", "note": "[K20T]", "abundance fitness": "-0.145 ± 0.1"}
{"variant": "GALPANLDDMKVAELKQELCLRSLPVSGTKTELIERLRAYQDQ", "note": "[K20C]", "abundance fitness": "0.309 ± 0.13"}
{"variant": "GALPANLDDMKVAELKQELHLRSLPVSGTKTELIERLRAYQDQ", "note": "[K20H]", "abundance fitness": "-0.342 ± 0.18"}
{"variant": "GALPANLDDMKVAELKQELLLRSLPVSGTKTELIERLRAYQDQ", "note": "[K20L]", "abundance fitness": "0.002 ± 0.075"}
{"variant": "GALPANLDDMKVAELKQELMLRSLPVSGTKTELIERLRAYQDQ", "note": "[K20M]", "abundance fitness": "0.044 ± 0.098"}
{"variant": "GALPANLDDMKVAELKQELDLRSLPVSGTKTELIERLRAYQDQ", "note": "[K20D]", "abundance fitness": "-0.061 ± 0.12"}
{"variant": "GALPANLDDMKVAELKQELKLRSLAVSGTKTELIERLRAYQDQ", "note": "[P25A]", "abundance fitness": "-0.263 ± 0.069"}
{"variant": "GALPANLDDMKVAELKQELKLRSLDVSGTKTELIERLRAYQDQ", "note": "[P25D]", "abundance fitness": "-0.197 ± 0.088"}
{"variant": "GALPANLDDMKVAELKQELKLRSLEVSGTKTELIERLRAYQDQ", "note": "[P25E]", "abundance fitness": "-0.055 ± 0.076"}
{"variant": "GALPANLDDMKVAELKQELKLRSLFVSGTKTELIERLRAYQDQ", "note": "[P25F]", "abundance fitness": "-0.963 ± 0.14"}
{"variant": "GALPANLDDMKVAELKQELKLRSLGVSGTKTELIERLRAYQDQ", "note": "[P25G]", "abundance fitness": "-0.186 ± 0.059"}
{"variant": "GALPANLDDMKVAELKQELKLRYLPVSGTKTELIERLRAYQDQ", "note": "[S23Y]", "abundance fitness": "0.038 ± 0.2"}
{"variant": "GALPANLDDMKVAELKQELKLRPLPVSGTKTELIERLRAYQDQ", "note": "[S23P]", "abundance fitness": "-0.834 ± 0.28"}
{"variant": "GALPANLDDMKVAELKQELKLRFLPVSGTKTELIERLRAYQDQ", "note": "[S23F]", "abundance fitness": "-0.205 ± 0.14"}
{"variant": "GALPANLDDMKVAELKQELKLRRLPVSGTKTELIERLRAYQDQ", "note": "[S23R]", "abundance fitness": "-0.036 ± 0.061"}
{"variant": "GALPANLDDMKVAELKQELKLRHLPVSGTKTELIERLRAYQDQ", "note": "[S23H]", "abundance fitness": "0.176 ± 0.11"}
{"variant": "GALPANLDDMKVAELKQELKLRILPVSGTKTELIERLRAYQDQ", "note": "[S23I]", "abundance fitness": "-0.307 ± 0.084"}
{"variant": "GALPANLDDMKVAELKQELKLRLLPVSGTKTELIERLRAYQDQ", "note": "[S23L]", "abundance fitness": "-0.018 ± 0.071"}
{"variant": "GALPANLDDMKVAELKQELKLRDLPVSGTKTELIERLRAYQDQ", "note": "[S23D]", "abundance fitness": "0.073 ± 0.072"}
{"variant": "GALPANLDDMKVAELKQELKLRELPVSGTKTELIERLRAYQDQ", "note": "[S23E]", "abundance fitness": "0.092 ± 0.084"}
{"variant": "GALPANLDDMKVAELKQELKLRGLPVSGTKTELIERLRAYQDQ", "note": "[S23G]", "abundance fitness": "0.291 ± 0.063"}
{"variant": "GALPANLDDMKVAELKQELKLRMLPVSGTKTELIERLRAYQDQ", "note": "[S23M]", "abundance fitness": "-0.162 ± 0.095"}
{"variant": "GALPANLDDMKVAELKQELKLRVLPVSGTKTELIERLRAYQDQ", "note": "[S23V]", "abundance fitness": "-0.22 ± 0.072"}
{"variant": "GALPANLDDMKVAELKQELKLRALPVSGTKTELIERLRAYQDQ", "note": "[S23A]", "abundance fitness": "0.018 ± 0.063"}
{"variant": "GALPANLDDMKVAELKQELKLRKLPVSGTKTELIERLRAYQDQ", "note": "[S23K]", "abundance fitness": "0.142 ± 0.15"}
{"variant": "GALPANLDDMKVAELKQELKLRWLPVSGTKTELIERLRAYQDQ", "note": "[S23W]", "abundance fitness": "-0.256 ± 0.083"}
{"variant": "GALPANLDDMKVAELKQELKLRCLPVSGTKTELIERLRAYQDQ", "note": "[S23C]", "abundance fitness": "0.052 ± 0.11"}
{"variant": "GALPANLDDMKVAELKQELKLRNLPVSGTKTELIERLRAYQDQ", "note": "[S23N]", "abundance fitness": "0.008 ± 0.071"}
{"variant": "GALPANLDDMKVAELKQELKLRQLPVSGTKTELIERLRAYQDQ", "note": "[S23Q]", "abundance fitness": "-0.101 ± 0.083"}
{"variant": "GALPANLDDMKVAELKQELKLPSLPVSGTKTELIERLRAYQDQ", "note": "[R22P]", "abundance fitness": "-0.561 ± 0.25"}
{"variant": "GALPANLDDMKVAELKQELKLGSLPVSGTKTELIERLRAYQDQ", "note": "[R22G]", "abundance fitness": "-0.54 ± 0.096"}
{"variant": "GALPANLDDMKVAELKQELKLWSLPVSGTKTELIERLRAYQDQ", "note": "[R22W]", "abundance fitness": "-0.572 ± 0.16"}
{"variant": "GALPANLDDMKVAELKQELKLHSLPVSGTKTELIERLRAYQDQ", "note": "[R22H]", "abundance fitness": "-0.232 ± 0.096"}
{"variant": "GALPANLDDMKVAELKQELKLCSLPVSGTKTELIERLRAYQDQ", "note": "[R22C]", "abundance fitness": "-0.178 ± 0.12"}
{"variant": "GALPANLDDMKVAELKQELKLESLPVSGTKTELIERLRAYQDQ", "note": "[R22E]", "abundance fitness": "-0.163 ± 0.11"}
{"variant": "GALPANLDDMKVAELKQELKLQSLPVSGTKTELIERLRAYQDQ", "note": "[R22Q]", "abundance fitness": "-0.079 ± 0.088"}
{"variant": "GALPANLDDMKVAELKQELKLTSLPVSGTKTELIERLRAYQDQ", "note": "[R22T]", "abundance fitness": "-0.301 ± 0.2"}
{"variant": "GALPANLDDMKVAELKQELKLASLPVSGTKTELIERLRAYQDQ", "note": "[R22A]", "abundance fitness": "-0.099 ± 0.16"}
{"variant": "GALPANLDDMKVAELKQELKLDSLPVSGTKTELIERLRAYQDQ", "note": "[R22D]", "abundance fitness": "-0.327 ± 0.22"}
{"variant": "GALPANLDDMKVAELKQELKLLSLPVSGTKTELIERLRAYQDQ", "note": "[R22L]", "abundance fitness": "-0.223 ± 0.1"}
{"variant": "GALPANLDDMKVAELKQELKLKSLPVSGTKTELIERLRAYQDQ", "note": "[R22K]", "abundance fitness": "-0.318 ± 0.14"}
{"variant": "GALPANLDDMKVAELKQELKLFSLPVSGTKTELIERLRAYQDQ", "note": "[R22F]", "abundance fitness": "-0.816 ± 0.41"}
{"variant": "GALPANLDDMKVAELKQELKLVSLPVSGTKTELIERLRAYQDQ", "note": "[R22V]", "abundance fitness": "-0.277 ± 0.094"}
{"variant": "GALPANLDDMKVAELKQELKLSSLPVSGTKTELIERLRAYQDQ", "note": "[R22S]", "abundance fitness": "-0.561 ± 0.16"}
{"variant": "GALPANLDDMKVAELKQELKLNSLPVSGTKTELIERLRAYQDQ", "note": "[R22N]", "abundance fitness": "-0.47 ± 0.17"}
{"variant": "GALPANLDDMKVAELKQELKLMSLPVSGTKTELIERLRAYQDQ", "note": "[R22M]", "abundance fitness": "-0.229 ± 0.18"}
